Assay [1] concerns the target T1, BCMA on MM.1S target cells (UniProt Q02223 1-184, limits assumed).
T1 sequence (looked up): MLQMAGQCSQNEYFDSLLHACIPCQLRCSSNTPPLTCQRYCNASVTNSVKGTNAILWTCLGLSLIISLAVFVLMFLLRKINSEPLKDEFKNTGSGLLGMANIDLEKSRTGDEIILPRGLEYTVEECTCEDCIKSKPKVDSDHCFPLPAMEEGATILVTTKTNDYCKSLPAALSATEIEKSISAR
Briefly: cell-based or functional assay.

Assay [2] deals with T2, biotinylated dimeric CD16A antigen (human, UniProt P08637 17-208, limits assumed, biotinylated (site not stated)).
T2 construct: Soluble antigen; also called soluble CD16A antigen
Briefly: ELISA, biotinylated dimeric CD16A titrated on coated construct. The protocol:
(§1) For the capturing approach, 96-well ELISA plates (Immuno Maxisorp, Nunc) were coated overnight at 4° C. with His-tagged human EGFR or BCMA extracellular domain at concentrations of 3.0 or 0.4 μg/mL, respectively. After blocking with 3% (w/v) skimmed milk powder dissolved in phosphate buffered saline (PBS), antigen coated plates were used for capturing of different multivalent bispecific engagers at concentrations of 3-5 μg/mL in PBS containing 0.3% (w/v) skimmed milk powder. After washing three times with 300 μL per well of PBS containing 0.1% (v/v) Tween 20, plates were incubated with serial dilutions of biotinylated dimeric or monomeric CD16A antigen in PBS containing 0.3% (w/v) skimmed milk powder for 1.5 h at room temperature. After washing, plates were incubated with the detection conjugate Streptavidin HRP, 1:10,000 diluted in PBS containing 0.3% (w/v) skimmed milk powder for 1 h followed by washing and incubation with tetramethylbenzidine substrate (Seramun) for 1-2 min. Reaction was stopped by addition of 0.5 M H₂SO₄ (100 μL/well). Absorbance was measured at 450 nm using a multiwell plate reader, plotted and EC₅₀ values were determined by fitting a nonlinear regression model to sigmoidal dose-response curves (four parameters logistic fit) using GraphPad Prism software.
(§2) Concentration dependent binding of antibody constructs to coated recombinant CD16A antigen, or of soluble monomeric or dimeric CD16 antigen variants to coated or target antigen captured antibody constructs was analyzed in ELISA. Half maximal binding concentrations (EC₅₀) were determined by fitting a nonlinear regression model to sigmoidal dose-response curves (four parameters logistic fit) using GraphPad Prism software.
(An ELISA detects its analyte on a solid surface through an enzyme-linked reagent.)

Assay [3] has as its target T3, biotinylated monomeric CD16A antigen (human, UniProt P08637 17-208, limits assumed, biotinylated (site not stated)).
T3 construct: Soluble antigen; also called soluble CD16A antigen
Briefly: ELISA, biotinylated monomeric CD16A titrated on coated construct. As for the experimental part: as §1, §2

The target in assay [4] is T4, recombinant CD16A 158F fused to monomeric human Fc (human, UniProt P08637 17-208).
T4 construct: also called recombinant CD16 antigen variant; not shown: monomeric human Fc
As to the kind of experiment: ELISA, construct titrated on coated CD16A 158F fused to monomeric human Fc. The protocol: To assess binding of EGFR/CD16 or BCMA/CD16 antibodies to coated antigen in ELISA, 96-well ELISA plates (Immuno Maxisorp, Nunc) were coated overnight at 4° C. with recombinant CD16 antigen variants fused to monomeric human Fc at a concentration of 1.5 μg/mL in 100 mM carbonate-bicarbonate buffer. After blocking with 3% (w/v) skimmed milk powder dissolved in phosphate buffered saline (PBS) serial dilutions of bispecific antibody constructs were incubated on the antigen coated plates for 1.5 h at room temperature. […] After washing, plates were incubated with tetramethylbenzidine substrate (Seramun) for 1-2 min. Reaction was stopped by addition of 0.5 M H₂SO₄ (100 μL/well). Absorbance was measured at 450 nm using a multiwell plate reader, plotted and EC₅₀ values were determined by fitting a nonlinear regression model to sigmoidal dose-response curves (four parameters logistic fit) using GraphPad Prism software.
as §2

The target in assay [5] is recombinant CD16A 158V fused to monomeric human Fc (human, UniProt P08637 17-208). Briefly: ELISA, construct titrated on coated CD16A 158V fused to monomeric human Fc.
Assay [6] has as its target T2, biotinylated dimeric CD16A antigen. Briefly: ELISA, biotinylated dimeric CD16A titrated on construct captured by coated His-tagged human BCMA extracellular domain. The protocol:
as §1, §2

Assay [7] addresses T3, biotinylated monomeric CD16A antigen. Briefly: ELISA, biotinylated monomeric CD16A titrated on construct captured by coated His-tagged human BCMA extracellular domain. The protocol:
as §1, §2

The target in assay [8] is CD38 on primary human NK cells (human, UniProt P28907 1-300). Briefly: cell-based or functional assay.

T3 sequence (P08637 17-208 limits assumed): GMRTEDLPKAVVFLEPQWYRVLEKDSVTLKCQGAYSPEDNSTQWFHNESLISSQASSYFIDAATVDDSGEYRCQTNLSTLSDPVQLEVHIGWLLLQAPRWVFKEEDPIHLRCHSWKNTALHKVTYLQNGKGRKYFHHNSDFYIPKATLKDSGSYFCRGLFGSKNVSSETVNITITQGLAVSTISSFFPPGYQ
T2 sequence (P08637 17-208 limits assumed): as above
recombinant CD16A 158V fused to monomeric human Fc, sequence (P08637 17-208 F176V): as the sequence (P08637 17-208 limits assumed) above, with F160V counted along it
T4 sequence (P08637 17-208): as the sequence (P08637 17-208 limits assumed) above

B1: Bi-scDb-Fc_01 (bispecific antibody, human IgG1)
chain: EVQLLESGGGLVQPGGSLRLSCAASGFTFSNYDMAWVRQAPGKGLEWVSSISTRGDITSYRDSVKGRFTISRDNSKNTLYLQMNSLRAEDTAVYYCARQDYYTDYMGFAYWGQGTLVTVSSGGGGSGGGGSGGGGSAIQMTQSPSSLSASVGDRVTITCRASEDIYNGLAWYQQKPGKAPKLLIYGASSLQDGVPSRFSGSGSGTEFTLTISSLQPEDEATYYCAGPHKYPLTFGGGTKVEIKEPKSCDKTHTCPPCPAPEFEGGPSVFLFPPKPKDTLMISRTPEVTCVVVAVSHEDPEVKFNWYVDGVEVHNAKTKPREEQYNSTYRVVSVLTVLHQDWLNGKEYKCKVSNKALPAPIEKTISKAKGQPREPQVYTLPPSREEMTKNQVSLTCLVKGFYPSDIAVEWESNGQPENNYKTTPPVLDSDGSFFLYSKLTVDKSRWQQGNVFSCSVMHEALHNHYTQKSLSLSPGGGGGSGGGGSSYVLTQPSSVSVAPGQTATISCGGHNIGSKNVHWYQQRPGQSPVLVIYQDNKRPSGIPERFSGSNSGNTATLTISGTQAMDEADYYCQVWDNYSVLFGGGTKLTVLGGSGGSQVQLVQSGAEVKKPGESLKVSCKASGYTFTSYYMHWVRQAPGQGLEWMGAIEPMYGSTSYAQKFQGRVTMTRDTSTSTVYMELSSLRSEDTAVYYCARGSAYYYDFADYWGQGTLVTVSSGGSGGSGGSGGSGGSGGSSYVLTQPSSVSVAPGQTATISCGGHNIGSKNVHWYQQRPGQSPVLVIYQDNKRPSGIPERFSGSNSGNTATLTISGTQAMDEADYYCQVWDNYSVLFGGGTKLTVLGGSGGSQVQLVQSGAEVKKPGESLKVSCKASGYTFTSYYMHWVRQAPGQGLEWMGAIEPMYGSTSYAQKFQGRVTMTRDTSTSTVYMELSSLRSEDTAVYYCARGSAYYYDFADYWGQGTLVTVSS
notes: Anti-BCMA scFv - silenced Fc - anti-CD16A scDb
In general, EC50 refers to the concentration at which the effect is half-maximal. For B1, the “EC50 [pM], 4 h calcein-release cytotoxicity on BCMA+ MM.1S target cells, NK cells E:T 5:1” value in assay [1] was 1.1 pM. The “Emax [%], 4 h calcein-release cytotoxicity on BCMA+ MM.1S target cells, NK cells E:T 5:1” value in assay [1] was 51.2%. For the same molecule, the EC50 was 1.14 nM in assay [2]; 3.4 nM in assay [3]; 0.24 nM in assay [4]; 0.17 nM in assay [5]; 0.64 nM in assay [6]; 1.72 nM in assay [7].

B2: IgAb_51 (antibody, V domains shown)
VH: EVQLLESGGGLVQPGGSLRLSCAVSGFTFNSFAMSWVRQAPGKGLEWVSAISGSGGGTYYADSVKGRFTISRDNSKNTLYLQMNSLRAEDTAVYFCAKDKILWFGEPVFDYWGQGTLVTVSS
VL: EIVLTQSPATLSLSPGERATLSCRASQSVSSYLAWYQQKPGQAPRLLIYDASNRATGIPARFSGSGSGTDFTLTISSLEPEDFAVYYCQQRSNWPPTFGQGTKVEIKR
With B2, in assay [8], the “EC50 [pM], 4 h calcein-release NK cell fratricide assay, E:T 1:1” value is 66.5 pM and the “Emax [%], 4 h calcein-release NK cell fratricide assay, E:T 1:1” value was 68.6%.

B3: aBi-scDb-Fc_02 (bispecific antibody)
chain 1: DKTHTCPPCPAPEFEGGPSVFLFPPKPKDTLMISRTPEVTCVVVAVSHEDPEVKFNWYVDGVEVHNAKTKPREEQYNSTYRVVSVLTVLHQDWLNGKEYKCKVSNKALPAPIEKTISKAKGQPREPQVYTLPPSREEMTKNQVSLTCLVKGFYPSDIAVEWESNGQPENNYKTTPPVLDSDGSFFLTSKLTVDKSRWQQGNVFSCSVMHEALHNHYTQKSLSLSPGGGGGSGGGGSSYVLTQPSSVSVAPGQTATISCGGHNIGSKNVHWYQQRPGQSPVLVIYQDNKRPSGIPERFSGSNSGNTATLTISGTQAMDEADYYCQVWDNYSVLFGGGTKLTVLGGSGGSQVQLVQSGAEVKKPGESLKVSCKASGYTFTSYYMHWVRQAPGQGLEWMGAIEPMYGSTSYAQKFQGRVTMTRDTSTSTVYMELSSLRSEDTAVYYCARGSAYYYDFADYWGQGTLVTVSSGGSGGSGGSGGSGGSGGSSYVLTQPSSVSVAPGQTATISCGGHNIGSKNVHWYQQRPGQSPVLVIYQDNKRPSGIPERFSGSNSGNTATLTISGTQAMDEADYYCQVWDNYSVLFGGGTKLTVLGGSGGSQVQLVQSGAEVKKPGESLKVSCKASGYTFTSYYMHWVRQAPGQGLEWMGAIEPMYGSTSYAQKFQGRVTMTRDTSTSTVYMELSSLRSEDTAVYYCARGSAYYYDFADYWGQGTLVTVSSAAAGSHHHHHH
chain 2: EVQLLESGGGLVQPGGSLRLSCAASGFTFSNYDMAWVRQAPGKGLEWVSSISTRGDITSYRDSVKGRFTISRDNSKNTLYLQMNSLRAEDTAVYYCARQDYYTDYMGFAYWGQGTLVTVSSGGGGSGGGGSGGGGSAIQMTQSPSSLSASVGDRVTITCRASEDIYNGLAWYQQKPGKAPKLLIYGASSLQDGVPSRFSGSGSGTEFTLTISSLQPEDEATYYCAGPHKYPLTFGGGTKVEIKDKTHTCPPCPAPEFEGGPSVFLFPPKPKDTLMISRTPEVTCVVVAVSHEDPEVKFNWYVDGVEVHNAKTKPREEQYNSTYRVVSVLTVLHQDWLNGKEYKCKVSNKALPAPIEKTISKAKGQPREPQVYTLPPSREEMTKNQVSLYCLVKGFYPSDIAVEWESNGQPENNYKTTPPVLDSDGSFFLYSKLTVDKSRWQQGNVFSCSVMHEALHNHYTQKSLSLSPGGGGGSGGGGSSYVLTQPSSVSVAPGQTATISCGGHNIGSKNVHWYQQRPGQSPVLVIYQDNKRPSGIPERFSGSNSGNTATLTISGTQAMDEADYYCQVWDNYSVLFGGGTKLTVLGGSGGSQVQLVQSGAEVKKPGESLKVSCKASGYTFTSYYMHWVRQAPGQGLEWMGAIEPMYGSTSYAQKFQGRVTMTRDTSTSTVYMELSSLRSEDTAVYYCARGSAYYYDFADYWGQGTLVTVSSGGSGGSGGSGGSGGSGGSSYVLTQPSSVSVAPGQTATISCGGHNIGSKNVHWYQQRPGQSPVLVIYQDNKRPSGIPERFSGSNSGNTATLTISGTQAMDEADYYCQVWDNYSVLFGGGTKLTVLGGSGGSQVQLVQSGAEVKKPGESLKVSCKASGYTFTSYYMHWVRQAPGQGLEWMGAIEPMYGSTSYAQKFQGRVTMTRDTSTSTVYMELSSLRSEDTAVYYCARGSAYYYDFADYWGQGTLVTVSSAAAGSHHHHHH
Take B3: the “EC50 [pM], 4 h calcein-release cytotoxicity on BCMA+ MM.1S target cells, NK cells E:T 5:1” value in assay [1] is 2.3 pM. For the same molecule, the “Emax [%], 4 h calcein-release cytotoxicity on BCMA+ MM.1S target cells, NK cells E:T 5:1” value in assay [1] is 62.8%. In addition, the EC50 in assay [2] turned out to be 1 nM; in assay [3], 3.84 nM; in assay [4], 0.45 nM; in assay [5] it was 0.34 nM; in assay [6] it was 1.25 nM; in assay [7], 2.36 nM.
